# Test results: US20210139548A1 (published 2021)
# *1 amine or outer side, *2 acyl side, *3 side chain or, on linkers, in order; H or OH if unused. Side-chain parts run from the residue outwards. The star is where a group is joined. C18 diacid = O=C(O)CCCCCCCCCCCCCCCCC(=O)*; γGlu = O=C(O)[C@H](CCC(=O)[*:2])N[*:1]; Isovaleryl = CC(C)CC(=O)*; AEEA = NCCOCCOCC(=O)O
# T1: human neuropeptide Y2 receptor (human, UniProt P49146 1-381)
# T1 construct: whole, on cells; also called hNPY2 receptor; hNPY2-R
# T1 sequence (looked up): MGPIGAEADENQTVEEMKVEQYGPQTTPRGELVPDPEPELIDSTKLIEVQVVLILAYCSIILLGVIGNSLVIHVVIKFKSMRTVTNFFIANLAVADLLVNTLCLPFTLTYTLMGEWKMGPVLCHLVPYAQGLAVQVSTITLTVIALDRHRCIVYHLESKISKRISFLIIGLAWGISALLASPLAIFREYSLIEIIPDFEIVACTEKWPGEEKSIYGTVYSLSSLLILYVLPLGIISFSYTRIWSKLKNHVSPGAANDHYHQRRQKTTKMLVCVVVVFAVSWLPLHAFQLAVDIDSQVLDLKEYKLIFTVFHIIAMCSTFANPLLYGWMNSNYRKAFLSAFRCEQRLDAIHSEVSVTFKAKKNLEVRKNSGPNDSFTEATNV
# Biological target: T1, human neuropeptide Y2 receptor
# Experiment: radioligand competition (125I-PYY(1-36)), hNPY2R membranes
# Outline: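 Commercial human Y2 receptor membranes (0.5 μg protein/well) were incubated with peptide for 2 h at room temperature in 50 mM HEPES, 5 mM MgCl₂, 1 mM CaCl₂, pH 7.4, with 0.2% ovalbumin. Bound radioligand was separated on PEI-soaked GF/C filters and counted by scintillation, and IC₅₀ came from nonlinear sigmoidal regression.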
row,Binder,Ki
1,Isovaleryl-APEK([AEEA-AEEA-γGlu-C18 diacid])PEEDATPEELQRYYVELRHYYNWLTRQRY-NH2 (SMILES CC(C)CC(=O)N[C@@H](C)C(=O)N1CCC[C@H]1C(=O)N[C@@H](CCC(=O)O)C(=O)N[C@@H](CCCCNC(=O)COCCOCCNC(=O)COCCOCCNC(=O)CC[C@H](NC(=O)CCCCCCCCCCCCCCCCC(=O)O)C(=O)O)C(=O)N1CCC[C@H]1C(=O)N[C@@H](CCC(=O)O)C(=O)N[C@@H](CCC(=O)O)C(=O)N[C@@H](CC(=O)O)C(=O)N[C@@H](C)C(=O)N[C@H](C(=O)N1CCC[C@H]1C(=O)N[C@@H](CCC(=O)O)C(=O)N[C@@H](CCC(=O)O)C(=O)N[C@@H](CC(C)C)C(=O)N[C@@H](CCC(N)=O)C(=O)N[C@@H](CCCNC(=N)N)C(=O)N[C@@H](Cc1ccc(O)cc1)C(=O)N[C@@H](Cc1ccc(O)cc1)C(=O)N[C@H](C(=O)N[C@@H](CCC(=O)O)C(=O)N[C@@H](CC(C)C)C(=O)N[C@@H](CCCNC(=N)N)C(=O)N[C@@H](Cc1c[nH]cn1)C(=O)N[C@@H](Cc1ccc(O)cc1)C(=O)N[C@@H](Cc1ccc(O)cc1)C(=O)N[C@@H](CC(N)=O)C(=O)N[C@@H](Cc1c[nH]c2ccccc12)C(=O)N[C@@H](CC(C)C)C(=O)N[C@H](C(=O)N[C@@H](CCCNC(=N)N)C(=O)N[C@@H](CCC(N)=O)C(=O)N[C@@H](CCCNC(=N)N)C(=O)N[C@@H](Cc1ccc(O)cc1)C(N)=O)[C@@H](C)O)C(C)C)[C@@H](C)O) [Compound 101],3.29 nM
2,Isovaleryl-APEK([AEEA-AEEA-γGlu-C18 diacid])PEEDASPEELQKYYVALRHYYNWLTRQRY-NH2 (SMILES CC(C)CC(=O)N[C@@H](C)C(=O)N1CCC[C@H]1C(=O)N[C@@H](CCC(=O)O)C(=O)N[C@@H](CCCCNC(=O)COCCOCCNC(=O)COCCOCCNC(=O)CC[C@H](NC(=O)CCCCCCCCCCCCCCCCC(=O)O)C(=O)O)C(=O)N1CCC[C@H]1C(=O)N[C@@H](CCC(=O)O)C(=O)N[C@@H](CCC(=O)O)C(=O)N[C@@H](CC(=O)O)C(=O)N[C@@H](C)C(=O)N[C@@H](CO)C(=O)N1CCC[C@H]1C(=O)N[C@@H](CCC(=O)O)C(=O)N[C@@H](CCC(=O)O)C(=O)N[C@@H](CC(C)C)C(=O)N[C@@H](CCC(N)=O)C(=O)N[C@@H](CCCCN)C(=O)N[C@@H](Cc1ccc(O)cc1)C(=O)N[C@@H](Cc1ccc(O)cc1)C(=O)N[C@H](C(=O)N[C@@H](C)C(=O)N[C@@H](CC(C)C)C(=O)N[C@@H](CCCNC(=N)N)C(=O)N[C@@H](Cc1c[nH]cn1)C(=O)N[C@@H](Cc1ccc(O)cc1)C(=O)N[C@@H](Cc1ccc(O)cc1)C(=O)N[C@@H](CC(N)=O)C(=O)N[C@@H](Cc1c[nH]c2ccccc12)C(=O)N[C@@H](CC(C)C)C(=O)N[C@H](C(=O)N[C@@H](CCCNC(=N)N)C(=O)N[C@@H](CCC(N)=O)C(=O)N[C@@H](CCCNC(=N)N)C(=O)N[C@@H](Cc1ccc(O)cc1)C(N)=O)[C@@H](C)O)C(C)C) [Compound 107],1.1 nM
3,Isovaleryl-APAK([AEEA-AEEA-γGlu-C18 diacid])PEEDASEEELQRYYVSLRHYYNWLTRQRY-NH2 (SMILES CC(C)CC(=O)N[C@@H](C)C(=O)N1CCC[C@H]1C(=O)N[C@@H](C)C(=O)N[C@@H](CCCCNC(=O)COCCOCCNC(=O)COCCOCCNC(=O)CC[C@H](NC(=O)CCCCCCCCCCCCCCCCC(=O)O)C(=O)O)C(=O)N1CCC[C@H]1C(=O)N[C@@H](CCC(=O)O)C(=O)N[C@@H](CCC(=O)O)C(=O)N[C@@H](CC(=O)O)C(=O)N[C@@H](C)C(=O)N[C@@H](CO)C(=O)N[C@@H](CCC(=O)O)C(=O)N[C@@H](CCC(=O)O)C(=O)N[C@@H](CCC(=O)O)C(=O)N[C@@H](CC(C)C)C(=O)N[C@@H](CCC(N)=O)C(=O)N[C@@H](CCCNC(=N)N)C(=O)N[C@@H](Cc1ccc(O)cc1)C(=O)N[C@@H](Cc1ccc(O)cc1)C(=O)N[C@H](C(=O)N[C@@H](CO)C(=O)N[C@@H](CC(C)C)C(=O)N[C@@H](CCCNC(=N)N)C(=O)N[C@@H](Cc1c[nH]cn1)C(=O)N[C@@H](Cc1ccc(O)cc1)C(=O)N[C@@H](Cc1ccc(O)cc1)C(=O)N[C@@H](CC(N)=O)C(=O)N[C@@H](Cc1c[nH]c2ccccc12)C(=O)N[C@@H](CC(C)C)C(=O)N[C@H](C(=O)N[C@@H](CCCNC(=N)N)C(=O)N[C@@H](CCC(N)=O)C(=O)N[C@@H](CCCNC(=N)N)C(=O)N[C@@H](Cc1ccc(O)cc1)C(N)=O)[C@@H](C)O)C(C)C) [Compound 103],0.95 nM

# The next binders have a lower Ki than those just listed; values first:
row,Ki,Binder
1,0.66 nM,Isovaleryl-APEK([AEEA-AEEA-γGlu-C18 diacid])PEEDASPAEIQRYYVSLRHYYNWLTRQRY-NH2 (SMILES CC[C@H](C)[C@H](NC(=O)[C@H](CCC(=O)O)NC(=O)[C@H](C)NC(=O)[C@@H]1CCCN1C(=O)[C@H](CO)NC(=O)[C@H](C)NC(=O)[C@H](CC(=O)O)NC(=O)[C@H](CCC(=O)O)NC(=O)[C@H](CCC(=O)O)NC(=O)[C@@H]1CCCN1C(=O)[C@H](CCCCNC(=O)COCCOCCNC(=O)COCCOCCNC(=O)CC[C@H](NC(=O)CCCCCCCCCCCCCCCCC(=O)O)C(=O)O)NC(=O)[C@H](CCC(=O)O)NC(=O)[C@@H]1CCCN1C(=O)[C@H](C)NC(=O)CC(C)C)C(=O)N[C@@H](CCC(N)=O)C(=O)N[C@@H](CCCNC(=N)N)C(=O)N[C@@H](Cc1ccc(O)cc1)C(=O)N[C@@H](Cc1ccc(O)cc1)C(=O)N[C@H](C(=O)N[C@@H](CO)C(=O)N[C@@H](CC(C)C)C(=O)N[C@@H](CCCNC(=N)N)C(=O)N[C@@H](Cc1c[nH]cn1)C(=O)N[C@@H](Cc1ccc(O)cc1)C(=O)N[C@@H](Cc1ccc(O)cc1)C(=O)N[C@@H](CC(N)=O)C(=O)N[C@@H](Cc1c[nH]c2ccccc12)C(=O)N[C@@H](CC(C)C)C(=O)N[C@H](C(=O)N[C@@H](CCCNC(=N)N)C(=O)N[C@@H](CCC(N)=O)C(=O)N[C@@H](CCCNC(=N)N)C(=O)N[C@@H](Cc1ccc(O)cc1)C(N)=O)[C@@H](C)O)C(C)C) [Compound 95]
2,0.44 nM,Isovaleryl-APAK([AEEA-AEEA-γGlu-C18 diacid])PPEDASPEELQRYYVSLRHYYNWLTRQRY-NH2 (SMILES CC(C)CC(=O)N[C@@H](C)C(=O)N1CCC[C@H]1C(=O)N[C@@H](C)C(=O)N[C@@H](CCCCNC(=O)COCCOCCNC(=O)COCCOCCNC(=O)CC[C@H](NC(=O)CCCCCCCCCCCCCCCCC(=O)O)C(=O)O)C(=O)N1CCC[C@H]1C(=O)N1CCC[C@H]1C(=O)N[C@@H](CCC(=O)O)C(=O)N[C@@H](CC(=O)O)C(=O)N[C@@H](C)C(=O)N[C@@H](CO)C(=O)N1CCC[C@H]1C(=O)N[C@@H](CCC(=O)O)C(=O)N[C@@H](CCC(=O)O)C(=O)N[C@@H](CC(C)C)C(=O)N[C@@H](CCC(N)=O)C(=O)N[C@@H](CCCNC(=N)N)C(=O)N[C@@H](Cc1ccc(O)cc1)C(=O)N[C@@H](Cc1ccc(O)cc1)C(=O)N[C@H](C(=O)N[C@@H](CO)C(=O)N[C@@H](CC(C)C)C(=O)N[C@@H](CCCNC(=N)N)C(=O)N[C@@H](Cc1c[nH]cn1)C(=O)N[C@@H](Cc1ccc(O)cc1)C(=O)N[C@@H](Cc1ccc(O)cc1)C(=O)N[C@@H](CC(N)=O)C(=O)N[C@@H](Cc1c[nH]c2ccccc12)C(=O)N[C@@H](CC(C)C)C(=O)N[C@H](C(=O)N[C@@H](CCCNC(=N)N)C(=O)N[C@@H](CCC(N)=O)C(=O)N[C@@H](CCCNC(=N)N)C(=O)N[C@@H](Cc1ccc(O)cc1)C(N)=O)[C@@H](C)O)C(C)C) [Compound 100]
3,0.87 nM,Isovaleryl-APEK([AEEA-AEEA-γGlu-C18 diacid])PEEDASPEELQRYYVTLRHYYNWLTRQRY-NH2 (SMILES CC(C)CC(=O)N[C@@H](C)C(=O)N1CCC[C@H]1C(=O)N[C@@H](CCC(=O)O)C(=O)N[C@@H](CCCCNC(=O)COCCOCCNC(=O)COCCOCCNC(=O)CC[C@H](NC(=O)CCCCCCCCCCCCCCCCC(=O)O)C(=O)O)C(=O)N1CCC[C@H]1C(=O)N[C@@H](CCC(=O)O)C(=O)N[C@@H](CCC(=O)O)C(=O)N[C@@H](CC(=O)O)C(=O)N[C@@H](C)C(=O)N[C@@H](CO)C(=O)N1CCC[C@H]1C(=O)N[C@@H](CCC(=O)O)C(=O)N[C@@H](CCC(=O)O)C(=O)N[C@@H](CC(C)C)C(=O)N[C@@H](CCC(N)=O)C(=O)N[C@@H](CCCNC(=N)N)C(=O)N[C@@H](Cc1ccc(O)cc1)C(=O)N[C@@H](Cc1ccc(O)cc1)C(=O)N[C@H](C(=O)N[C@H](C(=O)N[C@@H](CC(C)C)C(=O)N[C@@H](CCCNC(=N)N)C(=O)N[C@@H](Cc1c[nH]cn1)C(=O)N[C@@H](Cc1ccc(O)cc1)C(=O)N[C@@H](Cc1ccc(O)cc1)C(=O)N[C@@H](CC(N)=O)C(=O)N[C@@H](Cc1c[nH]c2ccccc12)C(=O)N[C@@H](CC(C)C)C(=O)N[C@H](C(=O)N[C@@H](CCCNC(=N)N)C(=O)N[C@@H](CCC(N)=O)C(=O)N[C@@H](CCCNC(=N)N)C(=O)N[C@@H](Cc1ccc(O)cc1)C(N)=O)[C@@H](C)O)[C@@H](C)O)C(C)C) [Compound 102]
